Test results as given in patent publication US20250304712A1 (NATIONAL UNIVERSITY OF SINGAPORE, published 2025).

T1: Lymphocyte antigen 6 family member K (LY6K) expressed on the cell surface of human cells (human, UniProt Q17RY6 18-138)
T1 construct: whole, on cells; overexpressed in HEK293T for ADCC; also called LY6K on Ca Ski, Calu-1 and other human cancer cell lines; HEK293T-Ly6K overexpressing cells
T1 sequence (looked up): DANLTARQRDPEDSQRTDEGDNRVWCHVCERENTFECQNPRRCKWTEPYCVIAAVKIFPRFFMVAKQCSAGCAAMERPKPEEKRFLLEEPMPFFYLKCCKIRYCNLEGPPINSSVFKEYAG


Legend:
[1] = molecular target: T1, Lymphocyte antigen 6 family member K …; experiment: flow cytometry on human cancer cell lines
[2] = molecular target: T1, Lymphocyte antigen 6 family member K …; experiment: flow cytometry on Calu-1 cells

Binder	binding result [1]	binding result [2]
murine anti-LY6K antibody G57 (antibody, V domains shown, Hybridoma-derived; also called Ms G57) VH: EVQLVESGGDLVKPGGSLKLSCAASGFTFNSYGMSWVRQTPDKRLEWVATISSGGTYTYYSDSVKGRFTISRDNAKNILYLHMSSLKSEDTAMYYCARHDWDFFDYWGQGTTLTVSS VL: DVVMTQTPLSLPVSLGDQASISCRSSQSLVHTDGDTYLNWYLQKPGQSPKLLIYKVSNRFSGVPDRFSGSGSGTDFTLKIRRVEAEDLGVYFCSQNTHVYTFGGGTKLE	binds	
humanized 22C-G8 (antibody, V domains shown, CDR-grafted into human frameworks; also called Hu22C-G8; Hu 22C-G8) VH: QVQLVQSGAEVKKPGASVKVSCKASGYTFTSYWMHWVRQAPGQGLEWIGEINPSNGGANYNEKFKRRATMTVDKSTSTVYMELSSLRSEDTAVYYCTMGGNFFFAYWGQGTLVTVSS VL: DVVMTQSPLSLSVTLGQPASISCKSSQSLLASDGKTYLNWFQQRPGQSPRRLIYLVSKLDSGVPDRFSGSGSGTDFTLKISRVEAEDVGVYYCWQGSHFPLTFGGGTKVE		binds
